Experimental data from US20220411516A1.

Target: EGFRvIII (Epidermal Growth Factor Receptor Variant III) (human) (UniProt P00533)
Experiment: cell-based or functional assay

B1: AMG 596 (bispecific antibody, part only; not given: CD3-binding domain; linkers, part only)
chain, part: QVQLVESGGGVVQSGRSLRLSCAASGFTFRNYGMHWVRQAPGKCLEWVAVIWYDGSDKYYADSVRGRFTISRDNSKNTLYLQMNSLRAEDTAVYYCARDGYDILTGNPRDFDYWGQGTLVTVSSDTVMTQTPLSSHVTLGQPASISCRSSQSLVHSDGNTYLSWLQQRPGQPPRLLIYRISRRFSGVPDRFSGSGAGTDFTLEISRVEAEDVGVYYCMQSTHVPRTFGCGTKVEIK
B1 showed an EC20 (in vitro cytotoxic activity) of 0.07 ng/mL, an EC50 (in vitro cytotoxic activity) of 0.41 ng/mL and an EC90 (concentration found to produce 90% cytotoxic activity) of 1.8 ng/mL.
